Data reported in the domain aggregation screens of Martell et al. (2025).

Assay: soluble fraction after stress (log2 fold change); higher = more stays soluble; pooled small domains, quantitative proteomics
Details: stress: 50 degC
In short: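 Pooled custom libraries of small protein domains were measured in a high-throughput format, with quantitative proteomics as the read-out. Each library was stressed at 50°C. Aggregation propensity is given as the base-two logarithm of the fold change in how much of each protein stays soluble after the stress. Higher values mean a larger share of the protein remains in solution.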

Point of comparison: “HMVINKRELNVLSIYSRGSEKRAIILFPTGQTKLVKVGDTLNGGRVAAIGTTEIRYIKGGNNLVLKIPQ”, “soluble fraction (log2)” value -2.41. Against it:
- HMSLSQLGLTPRQTDVLALLLKGQPNKLIARELGLSVETVKDHVAAVLRALNVSSRTQAVIAVSQMLQ — higher, -0.905
- HMATGGKIYIGMNDNGKVVGVSDADKLLEDIPNKVRDVLGIIVDVNLLEENGLKYIEIDVPPYSN — higher, -0.585
- HMIMGTIEKRGPFSFRIGVQVRLPDGSWEWIRDTIHVSPDLSARAARKQAEMALARLEADVYEGKRKPD — higher, -0.878
- HMDIVGAINKIESMKQDRYLAMHPYSITHSADGYYRTYLPADDGKRKQIKKKSKSDLEKVVIDYWTKRS — higher, 0.0365
- HMEHDYGLSGREREVLELMVQGLVKKEIADRLALSYHTVDNHLRSIYAKLQVHTRGGAVAKALSEHLVPP — higher, 0.217
- HMRKLDQRLAGLLLGKGRLVKATHQQLADELGSVREMVSRLLKGFAEHDLVRMSREQIEIVDAAGLRKLAD — higher, -1.33
- HMDYGSLQRAIENQLEVRNYQKPKKFLTKIIQLMETIMVRHGVMVVGLTGTGKTTVIETLSRSMEQ — higher, -0.302
- HMPQETPIPKSEIQSYDEIWLEPISTDNILRNELRGWYHVKDRWVENEFGNRFYLDTYASKWLAFPS — higher, -0.0557
- HMDIDLNTIKKITLDDIHAFLSYLTTTYHSKAATRARKASSIRVFFNYLSAKANLIEVNPAQNLETPKLD — higher, 0.0581
- HMPWLIAVTVDGVNLPRFLRRAGEMGLLLTGVRIRGKHLSAFAREDDVPPLRMMAENGGWRFSVGN — higher, -1.61
- HMGLSASVIQMFADLGYTSEGRSTKEMITDYQIDHSIIKNSTEDGAGTYGPRTKASLSTVHAQYI — higher, -0.103
- HMTDLDDFAARLKTLTDGRASTPRLRDGVMMLSLDVGGLGPDQRDGLIAAIREGGLTVPGVSDVRIVMT — higher, 0.0757
- HMRPADTAAMLKYLSSGAVKGIGGALAGRIIEAFGDESIKVIEEDPARLATVKGITLKKAKEISEEMQRVN — higher, 0.0712
- HMHLEKGEVVVPDLKGLTMRQVGELLGKLNLRYSFSGTGLAVKQFPESGQIVNQGDIIEVIF — higher, -0.138
- HMDFYPARVKWFNKSKGFGFANIFKSNDDIFLHIETLKRSGLSDLETGEAIVLTVTEGPRGKMADTILTWD — higher, -0.433
- HMEMSLGEKLKQARLTKNFSQEYMAEVLQISQKTYSNFENNKTKPDFSQIEEISKVLETSILEFLT — higher, -0.152
- HMERLTVVPELLKRSLSEAQPLVTSARLRLEVSGGAPEDTSRAIVVGQKPPPGTRVQVGTTVIVTVQIQRP — higher, -0.0498
- HMNDLKVGELAKRGNVTAETVRHYTREGLLSPTRHPDNGYQLFSATDLERLHFIQRARKLGFSVAEIRDIL — higher, -0.619
- HMVINVNEIIRRIKELKTFKTDRQVADFLGVSKATVSNWMARNSIDFPLLINKLDGVDLTWLLTGRGTPE — higher, -1.16
- HMPLQLPEPMAELARNGETARLAEALKQGLDIDLRDGKGNTLLMIAAYQGRAETVAMLLKAGA — higher, -1.71
- HMTKYREVLRMSAGGFSQRVIASTLSISRNTVASTLKRAREQNLDWEAVEQQRLSEKDIANLLFP — higher, -0.996
- HMSGRIWTDNYGRTIEADVIKVNINRTVLLEFTDKKTKTVSFDTFISKDIQYLEYLLTRRNRGKL — lower, -3.9
- HMRHEDLSPAQKAAALVVAVGSENAAQVLRHLSEEEVEILAGEVARLGEVDPDVVDSVMREVYEQMMGH — higher, -0.423
- HMEEDGAPLESREVLLDQAISQGKGTQWTIATETKLEDHIVSGAYSTDGKVTLAVFSPLGDGKYEFSSSVN — higher, 0.0751
- HMSGFPTDAQIVREIRNILPTLENPTPRMVRKALENTFEVDMGESKTKKYINNIIITEYEKWSSVQSIRE — higher, -0.534
- HMENRLREVRDEIATRHGILPTVFINDRVLMNIHSKKPKDVSQLWQVDGISDEFIMKYGPEFIAEYKKKAK — higher, 0.0216
- HMSRSLEIDVLVKALLEQDRRKFMLVTDGTADVTVRYNNALPSLFREGQGVVAEGLMDNGKFIATNVLAK — higher, -0.631
- HMTPILTAQQVVAALQAAGYRNVHDLEFEHGRWEADAVNAAGQRVELHINPYTGAIERERLD — higher, ≥ 0.62
- HMLLTDGLERRIDGDKNLHIRISLPMLVKGQIKLAKSGNNESTVKGIFKIESYPGSHPRDVVTEIIEG — higher, -0.0938
- HMQTASVRFADGQLEVKQKGLQRVSVYSLNGMTVANKAVQGQDYVTISLPRAAYIVKITTQNGSFTKVI — higher, -0.207
- HMGPGSYVVNVKPYAYVSINGRDYGRTPVGPIRLDPGTYKVVFTHEHRPSFSRTIVVEAGRETFETFPYPG — higher, -0.29
- HMLSYIELTVDNTSKASYIMTDKMKINNFKIIGNNTIRVYENKVSPQDISRTLSMNNVSIEALGRKS — higher, -1.03
- HMYKLTYVVDGEVYLEETVSYGSKIAAAPAPEKEGYTFSGWEGLPEVMPAKDVTVSGSFTVN — higher, -0.405
- HMEKNKERIAFLKKRLEMYYEAEEKILQGQSYTIGSRTLTRTSLANVQSKIKELESEISALETRGN — higher, -0.57
- HMSYTAYLSQELGDMSREIQSELLKKGYNGSSSFTIVRTYMGSSVKFSVYNANNGELITSKTINM — higher, -1.93
- HMQTTEDMEINAKVDEYLREMYLWNDEYKTLNLDHNKGYEDFFYDALGSMTTNTLDKKTYVGSDGKTYYNL — higher, -0.248
- HMDTGKLQSLVGSRGVAHTVLRPSGKVMIGDDVYPAVAETGFIPRGTAIVVRREEQGQLYVVEARK — higher, 0.179
